According to patent publication US20130040894A1, “INHIBITION OR ACTIVATION OF SERINE/THREONINE ULK3 KINASE ACTIVITY” (TALLINN UNIVERSITY OF TECHNOLOGY, priority 2009, published 2013):

Biological target: T1, FLAG-tagged GLI3, P10071
T1 chain: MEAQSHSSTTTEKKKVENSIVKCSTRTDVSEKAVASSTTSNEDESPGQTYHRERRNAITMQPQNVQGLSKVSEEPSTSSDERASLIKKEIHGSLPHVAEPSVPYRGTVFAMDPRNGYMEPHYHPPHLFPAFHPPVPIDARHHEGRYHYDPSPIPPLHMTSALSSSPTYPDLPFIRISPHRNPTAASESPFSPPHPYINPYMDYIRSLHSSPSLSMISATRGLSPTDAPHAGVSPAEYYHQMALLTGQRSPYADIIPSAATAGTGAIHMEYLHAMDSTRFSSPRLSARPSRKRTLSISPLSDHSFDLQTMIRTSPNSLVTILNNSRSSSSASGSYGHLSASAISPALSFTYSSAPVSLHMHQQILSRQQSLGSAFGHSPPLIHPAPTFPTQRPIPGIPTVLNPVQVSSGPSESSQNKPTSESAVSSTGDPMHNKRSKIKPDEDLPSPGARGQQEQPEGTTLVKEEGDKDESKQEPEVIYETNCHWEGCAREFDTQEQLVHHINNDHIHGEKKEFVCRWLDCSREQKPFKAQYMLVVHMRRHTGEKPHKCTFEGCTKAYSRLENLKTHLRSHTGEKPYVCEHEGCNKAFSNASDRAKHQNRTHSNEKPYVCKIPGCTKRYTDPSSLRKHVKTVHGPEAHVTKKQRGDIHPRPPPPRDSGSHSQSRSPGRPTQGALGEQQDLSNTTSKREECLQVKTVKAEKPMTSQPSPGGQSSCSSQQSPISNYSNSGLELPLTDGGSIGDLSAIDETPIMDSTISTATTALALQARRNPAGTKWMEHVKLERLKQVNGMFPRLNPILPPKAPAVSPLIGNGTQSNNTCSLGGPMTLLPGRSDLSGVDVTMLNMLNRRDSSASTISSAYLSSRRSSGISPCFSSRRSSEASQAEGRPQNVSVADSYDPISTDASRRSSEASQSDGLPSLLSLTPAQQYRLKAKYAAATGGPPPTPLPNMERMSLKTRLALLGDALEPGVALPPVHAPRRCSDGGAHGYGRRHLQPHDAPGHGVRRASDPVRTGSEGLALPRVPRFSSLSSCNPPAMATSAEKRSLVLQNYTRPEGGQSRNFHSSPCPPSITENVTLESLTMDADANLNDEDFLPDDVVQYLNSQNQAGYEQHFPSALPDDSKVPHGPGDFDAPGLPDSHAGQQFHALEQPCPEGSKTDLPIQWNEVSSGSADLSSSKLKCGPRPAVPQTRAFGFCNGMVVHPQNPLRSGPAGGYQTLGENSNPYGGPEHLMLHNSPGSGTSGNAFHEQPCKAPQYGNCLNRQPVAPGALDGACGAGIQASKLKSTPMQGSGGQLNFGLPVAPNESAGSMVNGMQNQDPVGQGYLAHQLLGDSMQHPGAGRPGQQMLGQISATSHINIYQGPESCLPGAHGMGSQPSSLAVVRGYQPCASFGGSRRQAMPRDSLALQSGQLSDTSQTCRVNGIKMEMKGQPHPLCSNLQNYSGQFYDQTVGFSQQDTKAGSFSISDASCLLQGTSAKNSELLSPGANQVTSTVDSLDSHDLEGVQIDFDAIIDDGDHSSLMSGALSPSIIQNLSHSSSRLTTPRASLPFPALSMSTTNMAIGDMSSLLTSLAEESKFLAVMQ

B1: FLAG-tagged wild-type ULK3 (human serine/threonine kinase ULK3) (protein)
chain: MAGPGWGPPRLDGFILTERLGSGTYATVYKAYAKKDTREVVAIKCVAKKSLNKASVENLLTEIEILKGIRHPHIVQLKDFQWDSDNIYLIMEFCAGGDLSRFIHTRRILPEKVARVFMQQLASALQFLHERNISHLDLKPQNILLSSLEKPHLKLADFGFAQHMSPWDEKHVLRGSPLYMAPEMVCQRQYDARVDLWSMGVILYEALFGQPPFASRSFSELEEKIRSNRVIELPLRPLLSRDCRDLLQRLLERDPSRRISFQDFFAHPWVDLEHMPSGESLGRATALVVQAVKKDQEGDSAAALSLYCKALDFFVPALHYEVDAQRKEAIKAKVGQYVSRAEELKAIVSSSNQALLRQGTSARDLLREMARDKPRLLAALEVASAAMAKEEAAGGEQDALDLYQHSLGELLLLLAAEPPGRRRELLHTEVQNLMARAEYLKEQVKMRESRWEADTLDKEGLSESVRSSCTLQ
Question: Which “in vitro kinase assay, phosphorylation signal (32P autoradiography)” value does the source give for B1 here?
Answer: The value was “GLI1 and GLI3 were also phosphorylated by ULK3, but with significantly lower intensity as compared to GLI2”.
